Test results: article PMC10247859, “Replisome-cohesin interactions provided by the Tof1-Csm3 and Mrc1 cohesion establishment factors” (Chromosoma, 2023)

Tests used:
Conditions in all cases: both partners purified
[1] = target: T1, cohesin tetramer complex (Smc1-Smc3-Scc1-Scc3) (S. cerevisiae (budding yeast), UniProt P32908 1-1225; P47037 1-1230; Q12158 1-566; P40541 1-1150); test: SEC; Superose 6 Increase 3.2/300; 25 mM HEPES-KOH pH 7.6, 100 mM sodium acetate, 0.5 mM TCEP, 2 mM EDTA; proteins at the same molarity incubated together or separately at 30 °C for 5 min; fractions analysed by immunoblotting
T1 construct: Smc1, cohesin subunit, budding yeast; Smc3, cohesin subunit, budding yeast; Scc1, cohesin subunit, budding yeast; Scc3, cohesin subunit, budding yeast; also called cohesin complex; source: purified as previously described (Minamino et al. 2018): IgG agarose, 3C protease cleavage; copies: + + +

[2] = target: T2, Smc3 (S. cerevisiae (budding yeast), UniProt P47037 1-1230); test: cross-linking; CLMS with sulfo-SDA; cohesin, Tof1-Csm3 and Chl1 with or without Mrc1 at 300-350 nM, 30 °C 5 min, cross-linker 2 h at 4 °C, UV 365 nm; LC-MS/MS, 1% FDR at residue-pair level; two samples merged
T2 construct: Smc3, budding yeast; the Smc3 chain of m1; Stood in the cross-linking sample as a chain of cohesin; source: purified as part of cohesin, as previously described (Minamino et al. 2018)
T2 sequence (looked up): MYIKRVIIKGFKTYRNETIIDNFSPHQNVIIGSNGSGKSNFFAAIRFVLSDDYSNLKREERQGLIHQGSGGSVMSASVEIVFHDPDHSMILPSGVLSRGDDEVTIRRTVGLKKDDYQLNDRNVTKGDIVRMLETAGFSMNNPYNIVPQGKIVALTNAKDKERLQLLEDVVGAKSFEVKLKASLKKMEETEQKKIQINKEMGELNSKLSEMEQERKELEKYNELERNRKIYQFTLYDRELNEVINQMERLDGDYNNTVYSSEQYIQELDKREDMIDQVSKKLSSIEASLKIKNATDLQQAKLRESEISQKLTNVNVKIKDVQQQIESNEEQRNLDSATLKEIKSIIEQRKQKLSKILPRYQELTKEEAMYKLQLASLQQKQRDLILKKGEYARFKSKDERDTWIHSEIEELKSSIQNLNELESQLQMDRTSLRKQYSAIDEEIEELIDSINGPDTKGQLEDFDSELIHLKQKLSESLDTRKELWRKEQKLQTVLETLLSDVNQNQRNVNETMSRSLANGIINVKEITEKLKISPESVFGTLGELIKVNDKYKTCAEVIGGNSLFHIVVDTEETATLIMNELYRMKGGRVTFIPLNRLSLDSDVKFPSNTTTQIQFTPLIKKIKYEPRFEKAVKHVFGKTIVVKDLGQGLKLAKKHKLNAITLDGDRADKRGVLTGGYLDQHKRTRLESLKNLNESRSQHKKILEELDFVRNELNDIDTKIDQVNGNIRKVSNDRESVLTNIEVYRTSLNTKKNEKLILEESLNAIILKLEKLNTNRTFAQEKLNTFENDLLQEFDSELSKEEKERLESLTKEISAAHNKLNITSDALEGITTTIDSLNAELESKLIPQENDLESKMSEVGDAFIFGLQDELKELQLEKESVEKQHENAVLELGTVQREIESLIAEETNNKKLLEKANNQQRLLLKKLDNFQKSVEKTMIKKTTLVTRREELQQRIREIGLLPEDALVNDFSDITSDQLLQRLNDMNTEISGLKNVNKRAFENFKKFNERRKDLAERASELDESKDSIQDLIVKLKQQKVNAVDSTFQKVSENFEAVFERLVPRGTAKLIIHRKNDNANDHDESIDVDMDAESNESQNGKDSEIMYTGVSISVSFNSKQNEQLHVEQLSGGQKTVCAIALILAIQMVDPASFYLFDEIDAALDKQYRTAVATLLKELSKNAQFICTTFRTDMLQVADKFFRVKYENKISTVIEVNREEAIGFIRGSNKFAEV

[3] = target: T3, Smc1-Smc3 dimer (S. cerevisiae (budding yeast), UniProt P32908 1-1225; P47037 1-1230); test: pull-down; Flag-tagged Mrc1 (200-600 nM) held on anti-Flag M2 magnetic beads; with or without a first incubation with Tof1-Csm3, then cohesin (tetramer, trimer or Smc1-Smc3 dimer) or GINS; interaction buffer with 100 mM potassium glutamate; elution with 3x Flag peptide or SDS sample buffer; Coomassie staining; benzonase or NaCl added where indicated
T3 construct: Smc1, cohesin subunit, budding yeast; Smc3, cohesin subunit, budding yeast; also called SMC dimer; SMC dimers (Smc1-Smc3); source: purified following the same protocol as cohesin tetramers (IgG agarose, 3C protease cleavage); not shown: Protein A, C-terminal, cleaved

[4] = target: T4, Tof1-Csm3 complex (S. cerevisiae (budding yeast), UniProt P53840 1-1238; Q04659 1-317); test: as above
T4 construct: Tof1, budding yeast; Csm3, budding yeast; Held on calmodulin dynabeads when used as bait; source: purified as previously described (Yeeles et al. 2017)

[5] = target: T5, cohesin trimer (Smc1-Smc3-Scc1) (S. cerevisiae (budding yeast), UniProt P32908 1-1225; P47037 1-1230; Q12158 1-566); test: as above
T5 construct: Smc1, cohesin subunit, budding yeast; Smc3, cohesin subunit, budding yeast; Scc1, cohesin subunit, budding yeast; source: purified following the same protocol as cohesin tetramers (IgG agarose, 3C protease cleavage); copies: + +

Measured: binding result

T4 sequence (P53840 whole entry, chain 1 of 2): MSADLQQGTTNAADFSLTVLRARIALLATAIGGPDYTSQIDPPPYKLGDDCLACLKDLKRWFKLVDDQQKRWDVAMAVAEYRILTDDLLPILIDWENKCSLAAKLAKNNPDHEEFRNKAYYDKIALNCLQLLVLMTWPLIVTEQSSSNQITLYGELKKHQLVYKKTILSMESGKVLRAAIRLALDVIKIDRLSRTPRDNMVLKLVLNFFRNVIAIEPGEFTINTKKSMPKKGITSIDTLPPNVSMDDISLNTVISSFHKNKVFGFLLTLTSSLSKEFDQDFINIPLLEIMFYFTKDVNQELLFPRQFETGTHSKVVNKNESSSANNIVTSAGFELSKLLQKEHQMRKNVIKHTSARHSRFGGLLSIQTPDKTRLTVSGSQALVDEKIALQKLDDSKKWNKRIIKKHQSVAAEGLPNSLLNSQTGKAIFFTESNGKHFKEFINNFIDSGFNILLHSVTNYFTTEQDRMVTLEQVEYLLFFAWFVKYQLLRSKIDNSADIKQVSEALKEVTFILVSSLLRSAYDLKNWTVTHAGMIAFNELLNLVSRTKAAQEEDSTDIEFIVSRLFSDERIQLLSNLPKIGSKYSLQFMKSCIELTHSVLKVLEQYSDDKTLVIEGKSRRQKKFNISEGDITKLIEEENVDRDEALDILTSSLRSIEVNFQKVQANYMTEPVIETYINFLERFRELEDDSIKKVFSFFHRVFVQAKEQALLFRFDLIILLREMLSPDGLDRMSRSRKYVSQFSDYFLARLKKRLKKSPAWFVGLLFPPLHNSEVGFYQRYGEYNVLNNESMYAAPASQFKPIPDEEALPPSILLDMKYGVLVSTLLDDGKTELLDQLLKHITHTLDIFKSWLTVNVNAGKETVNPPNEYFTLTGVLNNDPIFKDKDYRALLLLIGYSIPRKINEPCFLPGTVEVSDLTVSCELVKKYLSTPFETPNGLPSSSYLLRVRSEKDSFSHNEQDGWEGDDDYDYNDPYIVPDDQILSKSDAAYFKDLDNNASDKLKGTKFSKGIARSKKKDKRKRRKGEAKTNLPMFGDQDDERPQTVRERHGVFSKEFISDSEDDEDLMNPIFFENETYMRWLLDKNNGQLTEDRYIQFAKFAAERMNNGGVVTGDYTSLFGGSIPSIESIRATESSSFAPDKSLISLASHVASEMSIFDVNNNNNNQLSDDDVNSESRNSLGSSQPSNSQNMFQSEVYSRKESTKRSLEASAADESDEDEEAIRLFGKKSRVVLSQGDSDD
T4 sequence (Q04659 whole entry, chain 2 of 2): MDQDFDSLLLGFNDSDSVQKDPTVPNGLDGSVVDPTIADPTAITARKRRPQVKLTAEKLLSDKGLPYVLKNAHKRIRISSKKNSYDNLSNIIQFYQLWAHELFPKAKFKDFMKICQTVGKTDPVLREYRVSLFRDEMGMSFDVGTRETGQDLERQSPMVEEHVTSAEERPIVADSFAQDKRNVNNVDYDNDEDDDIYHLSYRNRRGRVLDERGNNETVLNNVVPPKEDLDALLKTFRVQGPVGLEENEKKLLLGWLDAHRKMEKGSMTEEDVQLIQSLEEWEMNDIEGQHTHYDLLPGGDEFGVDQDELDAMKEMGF
T1 sequence (P32908 whole entry, chain 1 of 4, one chain of several): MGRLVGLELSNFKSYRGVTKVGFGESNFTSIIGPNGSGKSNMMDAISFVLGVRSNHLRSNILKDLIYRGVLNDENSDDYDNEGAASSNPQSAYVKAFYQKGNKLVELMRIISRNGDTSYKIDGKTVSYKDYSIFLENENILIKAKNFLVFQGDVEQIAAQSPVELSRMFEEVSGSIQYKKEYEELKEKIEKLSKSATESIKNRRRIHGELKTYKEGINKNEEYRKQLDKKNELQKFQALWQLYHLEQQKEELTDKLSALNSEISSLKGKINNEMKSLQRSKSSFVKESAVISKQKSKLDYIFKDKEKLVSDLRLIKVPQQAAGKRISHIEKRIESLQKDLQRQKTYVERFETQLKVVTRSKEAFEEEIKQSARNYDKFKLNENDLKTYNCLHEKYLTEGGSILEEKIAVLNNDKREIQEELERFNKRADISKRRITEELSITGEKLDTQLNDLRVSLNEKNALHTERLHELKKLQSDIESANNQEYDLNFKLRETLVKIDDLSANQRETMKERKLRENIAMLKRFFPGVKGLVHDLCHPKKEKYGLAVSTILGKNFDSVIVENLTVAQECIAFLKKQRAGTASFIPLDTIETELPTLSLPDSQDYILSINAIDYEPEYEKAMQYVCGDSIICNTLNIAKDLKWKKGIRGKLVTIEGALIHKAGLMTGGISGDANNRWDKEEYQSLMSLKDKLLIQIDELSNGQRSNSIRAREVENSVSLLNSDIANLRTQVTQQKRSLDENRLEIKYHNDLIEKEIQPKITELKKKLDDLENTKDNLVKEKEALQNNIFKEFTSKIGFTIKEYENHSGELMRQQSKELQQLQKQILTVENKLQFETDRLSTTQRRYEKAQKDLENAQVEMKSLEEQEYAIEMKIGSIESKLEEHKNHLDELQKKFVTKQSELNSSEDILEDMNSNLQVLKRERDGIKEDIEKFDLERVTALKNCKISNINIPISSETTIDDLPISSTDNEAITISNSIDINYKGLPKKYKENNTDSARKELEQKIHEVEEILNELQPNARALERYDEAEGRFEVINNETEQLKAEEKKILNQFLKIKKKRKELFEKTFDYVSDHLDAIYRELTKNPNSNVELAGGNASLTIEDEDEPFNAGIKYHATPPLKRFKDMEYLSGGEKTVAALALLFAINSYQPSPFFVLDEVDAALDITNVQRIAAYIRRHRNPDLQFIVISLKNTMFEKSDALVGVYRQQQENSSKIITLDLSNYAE
T1 sequence (Q12158 whole entry, chain 3 of 4, one chain of several): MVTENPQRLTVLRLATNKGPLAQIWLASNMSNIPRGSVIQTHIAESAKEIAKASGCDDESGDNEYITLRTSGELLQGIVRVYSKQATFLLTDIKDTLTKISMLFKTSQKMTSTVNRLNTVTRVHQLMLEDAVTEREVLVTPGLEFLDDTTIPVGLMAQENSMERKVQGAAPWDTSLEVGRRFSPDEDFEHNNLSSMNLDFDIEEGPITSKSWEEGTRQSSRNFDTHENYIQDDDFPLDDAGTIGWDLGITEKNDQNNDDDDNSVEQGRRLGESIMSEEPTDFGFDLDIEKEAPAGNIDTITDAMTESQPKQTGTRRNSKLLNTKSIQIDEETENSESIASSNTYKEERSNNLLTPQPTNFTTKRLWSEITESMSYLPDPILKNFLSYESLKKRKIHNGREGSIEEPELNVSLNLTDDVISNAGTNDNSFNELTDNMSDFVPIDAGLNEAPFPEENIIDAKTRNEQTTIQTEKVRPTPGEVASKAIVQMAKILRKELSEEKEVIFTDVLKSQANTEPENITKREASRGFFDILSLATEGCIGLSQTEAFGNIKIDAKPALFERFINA
T1 sequence (P40541 whole entry, chain 4 of 4, one chain of several): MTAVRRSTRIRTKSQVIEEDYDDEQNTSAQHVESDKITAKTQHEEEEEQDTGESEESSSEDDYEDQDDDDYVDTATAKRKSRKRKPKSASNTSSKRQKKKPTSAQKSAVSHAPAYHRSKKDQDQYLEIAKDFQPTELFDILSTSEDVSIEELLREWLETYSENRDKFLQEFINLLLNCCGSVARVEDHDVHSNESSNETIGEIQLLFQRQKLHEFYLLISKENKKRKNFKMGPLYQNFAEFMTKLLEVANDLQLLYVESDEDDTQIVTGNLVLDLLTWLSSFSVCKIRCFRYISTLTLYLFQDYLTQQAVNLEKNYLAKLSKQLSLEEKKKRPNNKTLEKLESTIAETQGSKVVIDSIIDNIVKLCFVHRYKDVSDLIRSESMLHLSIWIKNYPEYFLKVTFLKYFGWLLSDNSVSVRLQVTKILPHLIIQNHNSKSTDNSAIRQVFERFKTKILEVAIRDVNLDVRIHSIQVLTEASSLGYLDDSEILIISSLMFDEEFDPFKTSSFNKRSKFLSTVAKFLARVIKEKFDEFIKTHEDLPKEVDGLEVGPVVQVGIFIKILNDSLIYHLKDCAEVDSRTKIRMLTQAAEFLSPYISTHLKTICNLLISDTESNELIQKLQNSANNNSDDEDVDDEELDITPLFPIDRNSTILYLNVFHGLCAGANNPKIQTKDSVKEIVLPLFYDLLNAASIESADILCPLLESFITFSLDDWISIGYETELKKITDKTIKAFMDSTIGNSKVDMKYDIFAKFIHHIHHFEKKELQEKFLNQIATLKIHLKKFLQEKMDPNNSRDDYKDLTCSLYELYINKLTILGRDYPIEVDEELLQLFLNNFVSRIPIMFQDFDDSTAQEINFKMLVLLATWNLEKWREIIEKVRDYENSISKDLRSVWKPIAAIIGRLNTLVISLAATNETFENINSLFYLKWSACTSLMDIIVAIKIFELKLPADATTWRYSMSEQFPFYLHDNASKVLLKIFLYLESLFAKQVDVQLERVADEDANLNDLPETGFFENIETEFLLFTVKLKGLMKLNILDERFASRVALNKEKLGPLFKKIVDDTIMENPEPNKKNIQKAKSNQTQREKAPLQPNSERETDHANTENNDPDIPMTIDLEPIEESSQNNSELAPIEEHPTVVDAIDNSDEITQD
T3 sequence (P32908 whole entry, chain 1 of 2, one chain of several): as the sequence (P32908 whole entry, chain 1 of 4, one chain of several) above
T5 sequence (P32908 whole entry, chain 1 of 3, one chain of several): as the sequence (P32908 whole entry, chain 1 of 4, one chain of several) above
T5 sequence (Q12158 whole entry, chain 3 of 3, one chain of several): as the sequence (Q12158 whole entry, chain 3 of 4, one chain of several) above

B1: Mrc1 (natural protein, S. cerevisiae (budding yeast), UniProt P25588 1-1096, looked up)
chain: MDDALHALSSLTAKKRTTTYKKVAVPILDENDNTNGNGPNDIDNPPELTGNGFLFANATLNRVKNRLEGKKAPEQNHNNGKDRSENSLPTQLISNLYDGGEELEKSEVKDNSYSEKNVSSSFTQTQRIPVSIQQDKVFNVPIHSVNDGKPTQLIKEDGLVNETSQALKTPLTTGRPGATQRIDSSGATSQTQPIKSIEPQSQIITTSSNHSNALSPKIPIIPTELIGTSPLFQSIQNRGPDTQMDVPPQTAHDEDKTQAIGIPQATHQEQKTQIDTVAQTLQDEVPHTLKIREIQSELASEDSKREKARNVEYKKPQKPIPTKKFFSKESFLADFDDSSSNEDDDIKLENAHPKPVQNDDELHENKSVELNLTDETRINEKRVPLLSSYANNLKREIDSSKCITLDLDSDSDEYGDDDMDSIKLSKDESVLPISQLSKATILNLKARLSKQNQKLSQRPNKSKDPKVDHNVLLNTLRKASRKQILDHQKEVIETKGLKLEDMAKEKEIVENLLEQEILRNKRIRQKEKRREKLEENDFQLNAHDSGSDSGSESSGFALSGNEIADYESSGSENDNRRESDSEKEDDEIILKQKKSHHVKHIINESDSDTEVEAKPKEKADESLPKRIAINLGHYGDNIGEDTDKFQETNVLDTQNIEEVMAERNTIENEVKDDVYVNEEADEAIRRQLIDKEKLQLKQKEKEHEAKIKELKKRGVTNFFEMEAEESEDEWHGIGGADGEGSDDYDSDLEKMIDDYSKNNFNPHEIREMLAAENKEMDIKMINKILYDIKNGGFRNKRAKNSLELELSDDDEDDVLQQYRLKRRELMRKRRLEIGDDAKLVKNPKSSAFFESMVEDIIEYKNPFGAEEEYNLDITSTATDLDTQDNSINVGDNTGNNEQKPVDQKNKKVIISEDFVQKSLSFLKSNNYEDFETDKELSRIQHGNDEAIEDLYTLKQNSSIKSFTNSQTDSTTSKTVNTIIDLEKRPEDEDEVENGDTSLVGVFKHPSIIKSFASRTDINDKFKEGNKTVKILKSYKTVGSSKASITYMGKTRKLIAPKRKTEGSHRYHHDHHNKKMKMKTKTKSNKLFESGQDSFDN
notes: Mrc1, budding yeast; also called Flag-tagged Mrc1; source: purified as previously described (Yeeles et al. 2017)
binds: all assays above
